This note sets out measurements from patent US20110287023A1 (AstraZeneca / MedImmune, published 2011).

In test [1] the target is T1, activated HMG1 from LPS stimulated THP-1 cells (human, UniProt P09429 1-215).
T1 sequence (looked up): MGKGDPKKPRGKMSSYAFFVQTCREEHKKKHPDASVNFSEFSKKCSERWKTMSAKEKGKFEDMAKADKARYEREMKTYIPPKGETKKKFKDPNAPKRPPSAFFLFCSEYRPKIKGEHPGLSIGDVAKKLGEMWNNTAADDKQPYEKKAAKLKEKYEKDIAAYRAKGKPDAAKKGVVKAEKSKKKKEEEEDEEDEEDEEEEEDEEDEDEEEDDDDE
Description: sandwich ELISA: antibody titrated and captured on anti-human IgG Fc, activated HMG1 in solution, mouse anti-HMGB1 detection, OD 450. The method, then: (§1) Sandwich ELISA (soluble HMG1): Immunoplates (EIA/RIA plate, High binding, Costar) were coated with anti human IgG Fc at 10 μg/ml in PBS (pH 7.2) and incubated at 4° C. overnight. The coating reagent was removed and the plates were rinsed briefly with PBS. The plates were then blocked with 4% milk for 1 hour at 37° C. and rinsed with PBS. The anti-HMG1 antibodies were diluted in 4% milk. For serial dilutions, the antibodies were used at a starting concentration of 20 μg/ml. The diluted anti-HMG1 antibodies were then added into plate and incubated for 1 hr at 37° C. The plate was then washed 10 times with PBST (PBS/0.1% tween 20) and incubate with antigen (HMGB1, 2 μg/ml; or 0.7 μg/ml for native HMGB1) in 4% milk and incubated at 37° C. for 1 h. The plate was then wash 10 times and incubated with mouse anti-HMGB1, 1 μg/ml in 4% milk at 37° C. for 1 h. The plate was washed 10 times and incubated with anti-mouse IgG-HRP at 1:1000 at 37° C. for 1 h. The plate was then washed and developed. HRP activity was detected with Sureblue HRP substrate (KPL). Plates were read at 450 nm using a Kinetic Microplate Reader (Molecular Devices).
Background: In an ELISA, binding on a coated surface is turned into a signal by an enzyme label.

For test [2], the target named is T2, actively secreted HMGB1 of LPS treated HUVEC cells (UniProt P09429 1-215, limits assumed).
T2 construct: whole, on cells; immunostaining
T2 sequence (looked up): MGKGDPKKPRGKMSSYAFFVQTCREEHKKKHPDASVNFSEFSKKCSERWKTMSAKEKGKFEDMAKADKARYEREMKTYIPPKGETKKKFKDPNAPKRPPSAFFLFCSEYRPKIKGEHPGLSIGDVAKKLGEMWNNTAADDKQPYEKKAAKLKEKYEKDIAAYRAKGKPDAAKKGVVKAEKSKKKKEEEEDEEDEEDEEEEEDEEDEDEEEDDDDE
Briefly: immunofluorescence on fixed LPS treated HUVEC, anti-human IgG-FITC; paragraph 81 gives the lower panels as G4. The method, then:
Immunofluorescence: Intracytoplasmic (ic) HMGB1 was quantitated by direct immunofluorescence. HUVEC were harvested by trypsin-EDTA treatment and seeded on a glass coverslip. Once the cells are settled, they were stimulated with 0.2 μg/ml of LPS (Sigma) for 4 hours. The cells were fixed in 2% paraformaldehyde for 15 min and then permeabilized in 0.2% Triton X-100 for 2 min. Fixed and permeabilized cells were incubated with anti-HMGB1 antibodies at 1 μg/ml for 1 hour at room temperature. Cells were then washed to remove excess or nonspecifically bound primary antibody followed by incubation with anti human IgG conjugated with fluorescence (Pierce). The sections were mounted with fluoromount (Southern Associates, Birmingham, Ala.), and the images were processed with a Nikon microscope (Japan) and a SPOT imaging system (Diagnostic Instrument).

Test [3] concerns the target T3, native nuclear HMG1 from freeze-thawed 293H cells (human, UniProt P09429 1-215).
T3 construct: unpurified cell supernatant
T3 sequence (looked up): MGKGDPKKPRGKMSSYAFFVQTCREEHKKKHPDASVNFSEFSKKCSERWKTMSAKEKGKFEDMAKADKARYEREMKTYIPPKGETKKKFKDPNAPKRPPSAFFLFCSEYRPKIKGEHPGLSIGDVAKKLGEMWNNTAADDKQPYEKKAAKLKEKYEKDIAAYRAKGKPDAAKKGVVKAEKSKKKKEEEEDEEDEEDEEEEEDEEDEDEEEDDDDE
Description: sandwich ELISA: antibody titrated and captured on anti-human IgG Fc, native nuclear HMG1 at 0.7 ug/ml, mouse anti-HMGB1 and anti-mouse IgG-HRP, OD 450. The method, then:
as §1

Test [4] deals with T4, recombinant HMG1 produced in E. coli as a calmodulin binding protein (CBP) fusion (human).
T4 construct: also called rHMG1; rHMGB1
Briefly: sandwich ELISA: antibody titrated and captured on anti-human IgG Fc, soluble recombinant HMG1 at 2 ug/ml, mouse anti-HMGB1 and anti-mouse IgG-HRP, OD 450. The method, then:
as §1

For test [5], the target named is T5, HMGB1 in sera of septic peritonitis mice (mouse, UniProt P63158 1-215).
T5 construct: also called HMGB1 from sepsis sera (ELISA); peritonitis sera HMGB1
T5 sequence (looked up): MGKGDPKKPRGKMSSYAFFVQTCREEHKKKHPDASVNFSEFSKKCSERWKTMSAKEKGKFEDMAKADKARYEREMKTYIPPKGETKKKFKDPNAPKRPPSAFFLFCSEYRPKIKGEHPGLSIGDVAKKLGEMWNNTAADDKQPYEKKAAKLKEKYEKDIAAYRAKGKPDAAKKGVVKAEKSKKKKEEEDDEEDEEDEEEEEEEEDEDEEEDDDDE
Briefly: sandwich ELISA: antibody captured on anti-human Fc, peritonitis serum added, mouse anti-HMGB1 detection, OD 450. The method, then: HMGB1 Detection from Biological Samples: For detection of the HMGB1 from AIA joint homogenates and peritonitis sera, sandwich ELISA was performed. Goat anti-human Fc (Pierce) 14 μg/ml in PBS was coated on Immunlon IV microtiter plate over night at 4° C. After washing and blocking with 5% milk 1 hr at room temperature, G4 or S6 in blocking buffer (10 μg/ml) were added to each well of the blocked plate. The plate was washed 1 hour later and 25 μl of AIA homogenates containing 0.8 μg/ml of HMGB1 or peritonitis sera containing 7 μg/ml of HMGB1 in 0.5 M NaCl/blocking buffer were added to the wells at two fold serial dilutions. The unbound materials were removed by washing one hr after incubation. The bound HMGB1 was detected by a mouse anti-HMGB1 antibody at 2 μg/ml followed by an anti-mouse antibody conjugated with horseradish peroxidase. Mouse peritonitis sera was obtained by heart puncture 7 days after infection with heat killed staphylococcus aureus. Joint lysate was prepared from the whole paw of AIA rats as described in Example 6 below. Human sepsis sera were purchased from a commercial source.

B1: human anti-HMG1 antibody G4 (antibody, IgG1, V domains shown)
VH: EVQLLESGGGLVQPGGSLRLSCAASGFTFSWYDMTWVRQAPGKGLEWVSSISPSGGYTKYADSVKGRFTISRDNSKNTLYLQMNSLRAEDTAVYYCTTEFYDYLDVWGKGTTVTVSS
VL: DIQMTQSPGTLSLSPGEGATLSCRASQSVSSTYLAWYQQKPGQAPRLLIYEASKRATGTPARFSGSGSGTDFTLSISSLEPEDFAVYYCQHRHNWPPQWTFGQGTKVEVK
notes: full length IgG1 made from a human Fab phage clone; also called ATCC PTA-6258
As for B1, the binding result in test [1], in test [2] and in test [3] was “binds” each time.

B2: human anti-HMG1 antibody S16 (antibody, IgG1, V domains shown)
VH: EVQLLESGGGLVQPGGSLRLSCAASGFTFSWYSMLWVRQAPGKGLEWVSYISPSGGFTNYADSVKGRFTISRDNSKNTLYLQMNSLRAEDTAVYYCARWDYNSGWYYDHWGQGTLVTVSS
VL: DIQMTQSPDTLSLSPGERATLSCRASQSVNSRNLAWYQQKPGQAPRLLIYGASTRATGIPDRFSGSVSGTEFTLTISSLQPDDFATYYCQQYNSYFTFGQGTKLEIK
notes: full length IgG1 made from a human Fab phage clone; also called ATCC PTA-6259
The EC50 (read off the curve) is the concentration that produces a half-maximal response. Consider B2, for which, in test [4], the “EC50 (read off the curve)” value was ~0.08 µg/mL.

B3: human anti-HMG1 antibody S6 (antibody, V domains shown)
VH: EVQLLESGGGLVQPGGSLRLSCAASGFTFSWYDMSWVRQAPGKGLEWVSRISPSGGYTMYADSVKGRFTISRDNSKNTLYLQMNSLRAEDTAVYYCARLEVGATSGGTAFDIWGQGTMVTVSS
VL: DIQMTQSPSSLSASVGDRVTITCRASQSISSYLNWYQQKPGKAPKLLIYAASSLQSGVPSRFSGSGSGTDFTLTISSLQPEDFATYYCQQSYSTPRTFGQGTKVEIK
notes: full length IgG1 made from a human Fab phage clone; two paragraphs print 'S4' for the PTA-6143 deposit; also called ATCC PTA-6143
Regarding B3, the binding result in test [5] was “binds”.
